Results: patent US11160869B2 (priority 2019, dated 2021)

Assays:
[1] = Lyophilization buffer screens: HMW/dimer/monomer by SE-HPLC before and after lyophilization; assay type: physicochemical
Description: Size exclusion chromatography (SE-HPLC) can be used to characterize the size distribution of the IL-10 delivery construct. The percentage of IL-10 delivery construct found in dimer, monomer, and aggregate forms in a liquid composition or a lyophilized composition if reconstituted in a liquid can be determined by SEC-HPLC (FIG. 34).
Further testing based on the results from the initial liquid formulation screen, initial lyophilization feasibility studies were conducted using the conditions in TABLE 9. Glycine and mannitol, known to be useful in the lyophilization of proteins as […] bulking agents were added to this screen, histidine at pH 7.0 added to provide a more granular evaluation of the effect of pH in the 7.0-7.5 range, and trehalose was added as an option to sucrose as an osmolyte. FIGS. 21 and 22 show the percentage of target constructs in the dimer form before and after incubation at 25° C. for 3 days (FIG. 21) and before and after 5 freeze/thaw cycles (FIG. 22).
Based on the results from this initial study a second lyophilization screen was conducted using the formulations listed in TABLE 10.

[2] = Compression force screening, tablet properties and dimer recovery on dissolution; assay type: physicochemical; details: F1 and F2 tablets
Description: Various compression forces were used to create F1 tablets (TABLE 31) and F2 tablets (TABLE 32). Dimer purity of the target construct was also examined following compaction into a tablet. […] Dimer recovery was also assessed following dissolution of various tablets at pH 7.0 (FIGS. 20A-20D).
An additional tablet (F3) was created, which was similar to an F1 tablet but with glyceryl dibehenate in place of magnesium stearate (TABLE 33). This substitution was made due to incompatibility of magnesium stearate in dissolution of target constructs in solution.

IL-1Ra, IL-1β = assay: RT-PCR of IL-1Ra and IL-1β in near-distal colon; assay type: in vivo, mice; details: 9 mg/kg
IL-1Ra = assay: Systemic IL-1Ra in non-inflamed mice (ELISA MSD); assay type: in vivo; details: construct 10 mg/kg; rhIL-10 3 mg/kg; oral
[3] = Phase 1a single ascending dose in healthy male volunteers; assay type: in vivo, human
Description: In part B of the study, early data was gathered on the safety and tolerability, pharmacokinetics, pharmacodynamics and early clinical response following multiple ascending doses of the IL-10 delivery construct in Ulcerative Colitis (UC) patients (Part B).
Part A consisted of a single-ascending dose (SAD) escalation in healthy male volunteers. Six cohorts consisting of orally administered single ascending doses were conducted. At each dose level, 6 subjects were enrolled, randomized 2:4 to receive a single dose of placebo or the IL-10 delivery construct on day 1. The doses selected were 1 mg, 3 mg, 10 mg, 30 mg, 60 mg, and 120 mg.

[4] = test system: polarized gut epithelial cells; assay: In vivo transcytosis across polarized gut epithelial cells, rat jejunum, microscopy; set-up: species or system Wistar rats; details: luminal application to rat jejunum
Description: In vivo transcytosis was tested using male Wistar rats. Male Wistar rats were housed 3-5 per cage with a 12/12 h light/dark cycle and were about 225-275 g (approximately 6-8 weeks old) when placed on study. Experiments were conducted during the light phase using a non-recovery protocol that uses continuous isoflurane anesthesia. A 4-5 cm midline abdominal incision that exposed mid-jejunum regions was conducted. Stock solutions at 3.86×10^−5 M of delivery construct were prepared in phosphate buffered saline (PBS), with 50 μL (per 250 g rat) being administered by intraluminal injection (ILI) using a 29-gauge needle. The injection site mesentery was then marked with a permanent marker. […]
The delivery construct (SEQ ID NO: 5) included the cholix carrier with SEQ ID NO: 4 (and further including an N-terminal methionine) coupled to the IL-10 payload having an amino acid set forth in SEQ ID NO: 2 via a spacer having an amino acid set forth in SEQ ID NO: 6. Green fluorescence indicates the presence of IL-10 (via staining with an anti-IL-10 antibody). Blue fluorescence indicates DAPI staining, which labels DNA, and red fluorescence indicates the presence of CK-8 (cytokeratin-8) with which a cholix-derived carrier can co-localize (e.g., in a supranuclear region of an epithelial cell) during transcytosis. […]

[5] = test system: enterocytes and lamina propria cells; assay: Vesicular trafficking during apical to basal transcytosis (Rab7, Rab11, LMAN1, LAMP1), rat jejunum; assay type: in vivo
Description: Immunofluorescence microscopy images of rat jejunum were obtained following a 50 uL intraluminal injection of an IL-10 delivery construct prepared in PBS at ˜40 uM. For FIGS. 129-133: arrow=apical (luminal) epithelial membrane; dashed line=epithelial cell-basement membrane demarcation; 1-p=lamina propria; G=goblet cell. Cell nuclei stained with DAPI (blue).
The timing of LMAN1 redistribution to the basal compartment coincides with the presence of hIL-10 being ultimately detected in non-polarized cells within the lamina propria where it was not associated with LMAN1.
Ultimately, the delivery construct is delivered to lysosome-like structures within a large fraction of cells within the lamina propria, an outcome that would limit its systemic distribution following A-B transcytosis.

[6] = test system: CD3+ cells and F4/80 macrophages; assay: Cellular target in lamina propria after oral gavage (CD3, F4/80, pSTAT3); assay type: in vivo, mouse; details: 40 min after oral gavage
[7] = test system: human peripheral blood mononuclear cells (PBMCs); assay: LPS-induced TNFα, IL-6 and HLA-DR in PBMC monocytes, flow cytometry; details: pre-treatment
human SMI-100 monolayers = assay: Transport across polarized human small intestinal cell monolayers (SMI-100), western blot; details: apical to basal, 2 hr
[8] = secondary formulation buffer screen, 0.3% Poloxamer

B1: IL-10 delivery construct: recombinant homodimeric fusion protein: N-terminal methionine, cholix386 domain, polyGlySer spacer, recombinant human IL-10 (protein)
chain: MVEEALNIFDECRSPCSLTPEPGKPIQSKLSIPSDVVLDEGVLYYSMTINDEQNDIKDEDKGESIITIGEFATVRATRHYVNQDAPFGVIHLDITTENGTKTYSYNRKEGEFAINWLVPIGEDSPASIKISVDELDQQRNIIEVPKLYSIDLDNQTLEQWKTQGNVSFSVTRPEHNIAISWPSVSYKAAQKEGSRHKRWAHWHTGLALCWLVPMDAIYNYITQQNCTLGDNWFGGSYETVAGTPKVITVKQGIEQKPVEQRIHFSKGNAMSALAAHRVCGVPLETLARSRKPRDLTDDLSCAYQAQNIVSLFVATRILFSHLDSVFTLNLDEQEPEVAERLSDLRRINENNPGMVTQVLTVARQIYNDYVTHHPGLTPEQTSAGAQAGGGGSGGGGSGGGGSPGQGTQSENSCTHFPGNLPNMLRDLRDAFSRVKTFFQMKDQLDNLLLKESLLEDFKGYLGCQALSEMIQFYLEEVMPQAENQDPDIKAHVNSLGENLKTLRLRLRRCHRFLPCENKSKAVEQVKNAFNKLQEKGIYKAMSEFDIFINYIEAYMTMKIRN
modifications: homodimer
In the case of B1, the “stability with respect to aggregation” value ([1]; initial lyophilization feasibility study, conditions of TABLE 9) is reported as “more stable at pH7.5 with sucrose and glycine”, the “Pre-Lyophilization (%) Dimer” value [1, 8] is reported as 89.2% and the “Pre-Lyophilization (%) HMW” value [1, 8] is reported as 2.6%. For the same molecule, the “Pre-Lyophilization (%) Monomer” value [1, 8] was 8.2%, the “robustness of dimer to compaction into tablet” value [2] was “robust to compaction and granulation, although some aggregation was observed in final tablet form” and the “IL-1Ra/IL-1β mRNA ratio in colonic tissue” value (IL-1Ra, IL-1β) was “increase”. The “mRNA expression of IL-1Ra in near-distal colonic tissue” value (IL-1Ra, IL-1β) was “trend towards augmented mRNA expression of IL-1Ra”, the “increase of systemic IL-1Ra” value (IL-1Ra) was “about 3 fold” and the “IL-1Ra induction at high doses” value ([3]; 60 and 120 mg) was “loss of immunomodulatory activity”. The drug in blood ([3]; all doses (1-120 mg)) was “no drug was detected in the blood”, the “adverse events in 24 active subjects” value ([3]; all mild, self-limiting) was 2 and the IL-1Ra expression ([3]; single dose) was “able to induce IL-1Ra expression”. For the same molecule, the safety and tolerability ([3]; single oral doses 1-120 mg) was “safe and well tolerated”, the “earliest time of IL-10 payload transport into the lamina propria” value [4] was at most 1 min and the “co-localization with LMAN1” value ([5]; 1-15 min) was “co-localized with redistributing LMAN1”. The “co-localization with LAMP1 in polarized enterocytes” value ([5]; 1 min post ILI, not increasing over 15 min) was “Limited LAMP1/delivery construct co-localizations”, the “co-localization with LAMP1 in non-polarized cells within the lamina propria” value ([5]; 10 min and 15 min post ILI) was “extensive LAMP1/delivery construct co-localizations” and the “co-localization with Rab7+ vesicles in enterocytes” value ([5]; rat, in vivo) was “predominantly in the apical vesicular compartment”. For the same molecule, the “co-localization with Rab11+ vesicles in enterocytes” value ([5]; rat, in vivo) was “mostly in the basal vesicular compartment”, the “time course of completion of A-B transcytosis” value ([5]; rat, in vivo) was 10 to 15 min and the “co-localization of pSTAT3 with CD3+ cells” value [6] was “A moderate proportion of CD3+ cells”. The “co-localization of pSTAT3 with F4/80 macrophages” value [6] was “extensive co-localization with pSTAT3”, the “LPS-induced secreted TNFα” value [7] was “dose-dependent reduction” and the “LPS-induced surface expression of HLA-DR” value [7] was “dose-dependent reduction”. For the same molecule, the “transport across monolayers relative to rhIL-10” value (human SMI-100 monolayers) was “to a greater extent”.
